Laboratory results taken from IntAct's records for PubMed 18093972.

B1: Homeodomain-interacting protein kinase 2 (Mus musculus), Q9QZR5 (parent)
chain: MAPVYEGMASHVQVFSPHTLQSSAFCSVKKLKVEPSSNWDMTGYGSHSKVYSQSKNIPPSQPASTTVSTSLPIPNPSLPYEQTIIFPGSTGHIVVTSASSTSVTGQVLGGPHNLMRRSTVSLLDTYQKCGLKRKSEEIENTSSVQIIEEHPPMIQNNASGATVATATTSTATSKNSGSNSEGDYQLVQHEVLCSMTNTYEVLEFLGRGTFGQVVKCWKRGTNEIVAIKILKNHPSYARQGQIEVSILARLSTESADDYNFVRAYECFQHKNHTCLVFEMLEQNLYDFLKQNKFSPLPLKYIRPVLQQVATALMKLKSLGLIHADLKPENIMLVDPSRQPYRVKVIDFGSASHVSKAVCSTYLQSRYYRAPEIILGLPFCEAIDMWSLGCVIAELFLGWPLYPGASEYDQIRYISQTQGLPAEYLLSAGTKTTRFFNRDTDSPYPLWRLKTPDDHEAETGIKSKEARKYIFNCLDDMAQVNMTTDLEGSDMLVEKADRREFIDLLKKMLTIDADKRVTPIETLNHPFVTMTHLLDFPHSAHVKSCFQNMEICKRRVNMYDTVNQSKTPFITHVAPSTSTNLTMTFNNQLTTVHNQAPTTSSATLSLANPEVSILNYQSALYQPSAASMAAVAPRSMPLQTGTAQICARPDPFQQALIVCPPGFQGLQASPSKHAGYSVRMENAVPIVTQAPGAQPLQIQPGLLAQQAWPGGAQQILLPPAWQQLTGVATHTSVQHAAVIPETMAGTQQLADWRNTHAHGSHYNPIMQQPALLTGHVTLPAAQPLNVGVAHVMRQQPTSTTSSRKSKQHQSSVRNVSTCEVTSSQAISSPQRSKRVKENTPPRCAMVHSSPACSTSVTCGWGDVASSTTRERQRQTIVIPDTPSPTVSVITISSDTDEEEEQKHAPTSTVSKQRKNVISCVTVHDSPYSDSSSNTSPYSVQQRTGHNGTNTLDTKGGLENHCTGNPRTIIVPPLKTQASEVLVECDSLGPAISASHHSSSFKSKSSSTVTSTSGHSSGSSSGAIAYRQQRPGPHFQQQQPLNLSQAQQHMAADRTGSHRRQQAYITPTMAQAPYTFPHNSPSHGTVHPHLAAAAHLPTQPHLYTYTAPTALGSTGTVAHLVASQGSARHTVQHTAYPASIVHQVPVSMGPRVLPSPTIHPSQYPAQFAHQTYISASPASTVYTGYPLSPAKVNQYPYI
partner: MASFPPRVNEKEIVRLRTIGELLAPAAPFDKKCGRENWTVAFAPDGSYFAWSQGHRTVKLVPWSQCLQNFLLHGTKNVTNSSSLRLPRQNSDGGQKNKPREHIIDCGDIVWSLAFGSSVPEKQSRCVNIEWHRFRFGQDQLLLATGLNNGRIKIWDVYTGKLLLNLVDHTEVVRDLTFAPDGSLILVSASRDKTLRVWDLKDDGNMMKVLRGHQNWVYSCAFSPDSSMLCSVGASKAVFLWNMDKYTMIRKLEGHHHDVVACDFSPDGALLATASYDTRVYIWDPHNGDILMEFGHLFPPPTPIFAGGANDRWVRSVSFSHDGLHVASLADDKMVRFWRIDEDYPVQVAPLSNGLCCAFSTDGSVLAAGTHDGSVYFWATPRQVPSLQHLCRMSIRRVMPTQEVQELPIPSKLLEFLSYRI

Variants of: B1
Conditions: with wsb1_human WSB1, Q9Y6I7

Row | Variant | effect of a mutation on the interaction
1 | K228R | increasing interaction
